Experimental data: PMC11574045 (2024)

Biological target: GLUP (macrocyclic version of glup) (disulfide-cyclization and C-terminal amidation (results); head-to-side-chain cross-linking with 1,3-dibromomethylbenzene (methods))

- Kd: 4.55 µM
B1: TEAD4, purified recombinant protein (natural protein)
chain: PAPPWQGRSVASSKLWMLEFSAFLEQQQDPDTYNKHLFVHIGQSSPSYSDPYLEAVDIRQIYDKFPEKKGGLKDLFERGPSNAFFLVKFWADLNTNIEDEGSSFYGVSSQYESPENMIITCSTKVCSFGKQVVEKVETEYARYENGHYSYRIHRSPLCEYMINFIHKLKHLPEKYMMNSVLENFTILQVVTNRDTQETLLCIAYVFEVSASEHGAQHHIYRLVKE
